For 20 molecules, Kd results are on record in patent US20190071480A1 (Biogen, published 2019).

Test [1] has as its target T1, extracellular domain of activin receptor type IIB (ActRIIBecd), biotinylated (Homo sapiens (Human), UniProt Q13705 27-117, amino-biotinylated with amine-PEG3-Biotin).
T1 construct: immobilised on a streptavidin-coated sensor chip; also called biotinylated ActRIIBecd; extracellular domain of ActRIIB
T1 sequence: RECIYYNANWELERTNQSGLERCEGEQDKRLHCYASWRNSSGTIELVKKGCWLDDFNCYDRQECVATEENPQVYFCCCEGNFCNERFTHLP
The experiment in a line: BIAcore SPR, biotinylated ActRIIBecd on chip; SD ±18.67 nM. The protocol: (§1) Biosensor experiments. In one embodiment, experiments were performed on a BIAcore™ T100/T200 instrument (Pharmacia Biosensor AB) in the multichannel mode (serial flow path involving flow cells 1+2+3+4). Flow rate was 10 μl/min; temperature was 25° C.; and data were recorded at 2.5 points/s. All four segments of a sensor chip CMS were coated with streptavidin (Sigma) to a density of 2000 pg/mm² (2000 resonance units) by the aminocoupling procedure. ActRIIBecd (10 mg) and amine-PEG3-Biotin (10 mg, Pierce, Rockford, Ill.) were dissolved in 200 μl H₂O and 10 mg NaCNBH₃ was added to prepare biotinylated ActRIIBecd. The reaction mixture was heated at 70° C. for 24 h, after that a further 10 mg NaCNBH₃ was added and the reaction was heated at 70° C. for another 24 h. After cooling to room temperature, the mixture was desalted with the spin column (3,000 molecular weight cut off (MWCO)). […] Sensograms were recorded during flow of the analyte (the ActRIIBecd-associated polypeptides (i.e., domains) as previously described) first through flow cell 1 (control) then through flow cell 2 (biotinylated ActRIIBecd). […] The sensograms obtained at 1.11, 3.33, 10, 30, and 90 nM analyte were evaluated for equilibrium binding, association rate, and dissociation rate by using the programs supplied with the instrument (BIA evaluation 2.1; Software Handbook. 1995; Pharmacia Biosensor AB).
(In SPR one partner is held on a chip, and binding of the other changes the refractive index at the surface.)

For test [2], the target named is T1, extracellular domain of activin …. The experiment in a line: BIAcore SPR, biotinylated ActRIIBecd on chip; SD ±13.69 nM. On the procedure:
as §1

Test [3] has the same target. In words: BIAcore SPR as Example 5 (method not restated); SD ±1.45 nM. The protocol:
as §1

Test [4] has the same target. The experiment in a line: Mean KD column of Table 5; method not restated (BIAcore as Example 5); species also listed in Table 4. In outline:
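Receptor capture: biotin-ActRIIBecd on a streptavidin layer, 50-250 RU, loaded from pH 4.0 acetate. Analyte: polypeptides in pH 4.5 glycine, 1.11-90 nM. Output: subtracted sensograms fitted for rates and affinity.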

The target is the same in test [5]. The experiment in a line: BIAcore SPR, biotinylated ActRIIBecd on chip; SD ±16.11 nM. The protocol:
as §1

For test [6] the target is unchanged. The experiment in a line: BIAcore SPR, biotinylated ActRIIBecd on chip; SD ±11.88 nM. The protocol:
as §1

For test [7] the target is unchanged. The experiment in a line: BIAcore SPR, biotinylated ActRIIBecd on chip; SD ±17.42 nM. On the procedure: as §1
Test [8] shares this target. In words: BIAcore SPR, biotinylated ActRIIBecd on chip; SD ±13.59 nM. On the procedure:
as §1

Test [9] has the same target. The experiment in a line: BIAcore SPR, biotinylated ActRIIBecd on chip; SD ±13.69 nM. This is another data set of the same source.
Test [10] shares this target. The experiment in a line: BIAcore SPR, biotinylated ActRIIBecd on chip; SD ±18.52 nM. The protocol:
as §1

Test [11] has the same target. In words: BIAcore SPR, biotinylated ActRIIBecd on chip; SD ±14.15 nM. On the procedure:
as §1

The target is the same in test [12]. The experiment in a line: BIAcore SPR, biotinylated ActRIIBecd on chip; SD ±16.14 nM. On the procedure:
as §1

Test [13] shares this target. In words: BIAcore SPR, biotinylated ActRIIBecd on chip; SD ±19.56 nM. On the procedure:
as §1

The target is the same in test [14]. In words: BIAcore SPR, biotinylated ActRIIBecd on chip; SD ±19.71 nM. The protocol:
as §1

Test [15] shares this target. In words: BIAcore SPR, biotinylated ActRIIBecd on chip; SD ±18.15 nM. The protocol: as §1
The target is the same in test [16]. In words: BIAcore SPR, biotinylated ActRIIBecd on chip; SD ±14.42 nM. The protocol:
as §1

The target is the same in test [17]. In words: BIAcore SPR, biotinylated ActRIIBecd on chip; SD ±13.44 nM. On the procedure:
as §1

Test [18] shares this target. The experiment in a line: BIAcore SPR, biotinylated ActRIIBecd on chip; SD ±19.11 nM. The protocol: as §1
For test [19] the target is unchanged. In words: BIAcore SPR, biotinylated ActRIIBecd on chip; SD ±12.34 nM. On the procedure:
as §1

Test [20] has the same target. The experiment in a line: BIAcore SPR, biotinylated ActRIIBecd on chip; SD ±15.74 nM. On the procedure:
as §1

For test [21] the target is unchanged. In words: BIAcore SPR, biotinylated ActRIIBecd on chip; SD ±17.84 nM. The protocol:
as §1

Changes are numbered by the printed parent chain.

B1: Recombinant polypeptide of clones 28 + 12 (designed binder)
chain: EPLGGARWEAFDVTDAVQSHRRSPRASRKCCLGLRAVTASAQAKHKQYKRLKSSCKRHPLY
B1 registered a Kd in test [1] of 57.9 nM.

B2: Recombinant polypeptide of clones 26 + 16 (designed binder)
chain: TYPASPKPMRHSMRSCACCAGGLRNQTGTVVDFSDVGWNDWAVAPPGYHAFYCHGECPFPLADHLNSDNHAIVQTLVNSV
B2: in [2], binding was characterised by a dissociation constant (Kd) of 61.7 nM.

B3: SEQ ID NO: 348, cysteine pairs C15-C15^b, C29-C62^b, C30-C64^b, C88-C92^a (designed binder)
chain: GQAKRKGYKRLKSSCKRHPLYNSKIPKACCVPTELSAISMLYLDENEKVVLKNYQDMVVEGCGCRVDFSDVGWNDWIVAPPGYHAFYCHGECPFPLADHLNSTNHAIVQTLVNSV
modifications: disulfides C15-C15 (inter), C29-C62 (inter), C30-C64 (inter), C88-C92 (intra)
notes: homodimer by intermolecular disulfide
As to B3, the dissociation constant Kd in test [3] and in [4] was 6.31 nM in each case.

B4: Recombinant polypeptide of clones 12 + 28 (designed binder)
chain: AQAKHKQYKRLKSSCKRHPLYEPLGGARWEAFDVTDAVQSHRRSPRASRKCCLGLRAVTAS
B4 displayed a dissociation constant (Kd) in test [5] of 59.1 nM.
NSKIPKACCVPTELSAISMLYLDENEKVVLKNYQDMVVEGCGCR [Clone No. 21 domain (ActRIIBecd-associated polypeptide)] registered a dissociation constant Kd in test [6] of 37.1 nM.
In [7], NSKIPKACCVPTELSAISMLYLDENEKPVLKNYQDMVVEGCGCR [Clone No. 23 domain (ActRIIBecd-associated polypeptide)] gave a Kd of 64.4 nM.
As for NSKDPKACCVPTELSAISMLYLDENEKVVLKNYQDMVVHGCGCR [Clone No. 24 domain (ActRIIBecd-associated polypeptide)], binding in test [8] was put at a Kd of 56.7 nM.
Take NSKDPKACCVPTELSAPSPLYLDENEKPVLKNYQDMVVHGCGCR [Clone No. 19 domain (ActRIIBecd-associated polypeptide)]: the Kd in test [9] worked out at 40.1 nM.
NSKIPKACCVPTELSAISPLYLDENEKVVLKNYQDMVVHGCGCR [Clone No. 22 domain (ActRIIBecd-associated polypeptide)] yielded a Kd in test [10] of 51.7 nM.
In the case of TYPASPKPMRHKMRSCACCAGGLRNRTGTV [Clone No. 25 domain (ActRIIBecd-associated polypeptide)], binding in test [11] was characterised by a dissociation constant (Kd) of 41.1 nM.
Molecule TYPASPKPMRHSMRSCACCAGGLRNQTGTV [Clone No. 26 domain (ActRIIBecd-associated polypeptide)] yielded a Kd in [12] of 39.6 nM.

B5: Recombinant polypeptide of clones 17 + 18 (designed binder)
chain: VDFSDVGWNDWIVAPPGYHAFYCHGECPFPLADHLNSDNHAIVQTLVNSVVDFSDVGWNDHAVAPPGYHAFYCHGECPFPLADHLNSTNHAIVQTLVNSV
Turning to B5, the affinity in [13], expressed as Kd, was 65.8 nM.
In test [14], AQAKHKGYKRLKSSCKRHPLYAQAKHKGRKRLKSSCKRHPLY (designed binder) [Recombinant polypeptide of clones 9 + 11] had an equilibrium dissociation constant (Kd) of 59.1 nM.
AQAKHKGRKRLKSSCKRHPLYAQAKHKGYKRLKSSCKRHPLY (designed binder) [Recombinant polypeptide of clones 11 + 9] came in with a Kd in test [15] of 58.2 nM.
EPLGGARWEAFDVTDAVQSHRRSPRASRKCCLGLRAVTAS [Clone No. 28 domain (ActRIIBecd-associated polypeptide)]: the dissociation constant Kd in test [16] is 53.8 nM.
In test [17], EPLGGARWEAFDVTDAVQSHRRSQRASRKCCLVLRAVTAS [Clone No. 29 domain (ActRIIBecd-associated polypeptide)] showed an equilibrium dissociation constant (Kd) of 57.9 nM.

B6: Recombinant polypeptide of clones 16 + 26 (designed binder)
chain: VDFSDVGWNDWAVAPPGYHAFYCHGECPFPLADHLNSDNHAIVQTLVNSVTYPASPKPMRHSMRSCACCAGGLRNQTGTV
For the molecule B6, in [18], the Kd was found to be 57.8 nM.

B7: Recombinant polypeptide of clones 12 + 25 (designed binder)
chain: AQAKHKQYKRLKSSCKRHPLYTYPASPKPMRHKMRSCACCAGGLRNRTGTV
For B7, the affinity in [19], expressed as Kd, was 51.2 nM.

B8: Recombinant polypeptide of clones 23 + 24 (designed binder)
chain: NSKIPKACCVPTELSAISMLYLDENEKPVLKNYQDMVVEGCGCRNSKDPKACCVPTELSAISMLYLDENEKVVLKNYQDMVVHGCGCR
B8: the dissociation constant (Kd) in [20] came to 61.8 nM.

B9: Recombinant polypeptide of clones 24 + 23 (designed binder)
chain: B8 chain with I4D, P28V, E39H, D48I, V72P, H83E
On to B9, for which, in [21], the affinity, expressed as Kd, was 62.7 nM.

Usually Kd stands for the constant that tells how readily two partners part at equilibrium. Higher therefore signals weaker binding.
